Laboratory results taken from patent US8263350B2, “Molecular affinity clamp technology and uses thereof” (The University of Chicago, priority 2009, dated 2012).
Ends that are not written are not given here.

B1: Erbin PDZ: wild-type Erbin PDZ domain, the parent capture domain of the affinity clamps (protein)
chain: EIRVRVEKDPELGFSISGGVGGRGNPFRPDDDGIFVTRVQPEGPASKLLQPGDKIIQANGYSFINIEHGQAVSLLKTFQNTVELIIVREV

Key:
ePDZ-b2 = assay: SPR binding of the new tag peptide to ePDZ-b2; settings: FIG. 9, SPR, ePDZ-b2 immobilized
Description: The affinity clamps were immobilized and the target peptides in the form of yeast SUMO fusion protein were used as the analytes. (a) Sensorgrams for the interaction of the wild-type ARVCF peptide and ePDZ-b2. Data with 0, 10, 20, 40, 80 and 160 nM peptide are shown in black, and calculated curves from the global fittings of the 1:1 Langmuir binding model are in orange. The estimated dissociation constant is indicated. The peptide sequence is also shown. (b) Sensorgrams for the interaction of the new tag peptide to ePDZ-b2. Data with 0, 10, 20, 40 and 80 nM target are shown.
(§1) Affinity Measurements. SPR measurements were performed in 20 mM HEPES/NaOH buffer (pH 7.4), 150 mM NaCl, and 0.005% Tween 20 at 25° C. on a BIAcore 2000 instrument. The affinity clamp or the linker mutant was immobilized on a Ni-NTA chip to the level of approximate 300 RU, and different concentrations of SUMO-peptide fusion protein were injected. The kinetic data were analyzed using the one-to-one binding model in BIAEvaluation (BIAcore). For weak interactions (Kd>5 μM), Kd values were determined from the saturation curve of the maximum RU values.

ARVCF peptide = molecular target: T1, ARVCF peptide (Homo sapiens, UniProt O00192); assay: SPR affinity measurement of affinity clamps with the ARVCF peptide; format: binding; settings: 25° C.
T1 construct: His tag (N, cleaved yes); made in house; host or cells: E. coli BL21(DE3)
Description: (§2) Protein Expression and Purification. All proteins used in this study were expressed using derivatives of the pHFT2 expression vector in E. coli BL21(DE3) cells. Protein expression was induced with 500 μM IPTG for three to five hours at 25° C. Proteins were purified with Ni affinity chromatography following standard protocols. When necessary, a second step of purification with Sephacryl S-100 column in PBS (50 mM sodium phosphate containing 150 mM NaCl, pH 7.4) was performed to ensure that proteins were monomeric. For protein crystallization and SPR experiments, the N-terminal His tag was cleaved with TEV protease and the cleaved protein was purified using Ni affinity chromatography.
(§3) Site-directed mutagenesis. Mutant forms of the SUMO-ARVCF peptide fusion protein and linker mutants of affinity clamps were constructed using Kunkel mutagenesis.
as §1

[1] = system: ARVCF peptide (alanine substituted); assay: Ala-scanning of the ARVCF peptide with SPR affinity measurements; format: binding; settings: substitution at each of the four positions −7 to −4 of the ARVCF peptide
Text: Alanine-scanning mutagenesis analysis. Although the phage-display library approach is powerful in determining general trends in sequence specificity, large-scale sequencing is necessary for quantitatively characterizing protein-interaction energetics (Skelton et al., 2003; Sidhu and Koide, 2007). This requirement is acute particularly when there is a strong amino acid preference and thus recovered clones are dominated by a particular pattern, as in our case above. Accordingly, to complement the library sorting experiments described above, the inventors performed Ala-scanning experiments of the ARVCF peptide coupled with affinity measurements using SPR. Because the goal was to understand the differences in target recognition of the affinity clamps, and because the sequence specificity of the C-terminal four residues is predominantly defined by the specificity of the parent PDZ domain, the inventors analyzed only those positions that differed between the ARVCF and δ-catenin peptides.
as §3
Affinity Measurements. […] The kinetic data were analyzed using the one-to-one binding model in BIAEvaluation (BIAcore). […]

δ-catenin peptide = molecular target: T2, δ-catenin peptide (Homo sapiens, UniProt Q9UQB3); assay: SPR affinity measurement of affinity clamps with the δ-catenin peptide; format: binding
T2 construct: His tag (N, cleaved yes); made in house; host or cells: E. coli BL21(DE3)
Description: as §2, §1

Row | Molecule | affinity compared with the original (ARVCF) peptide (ePDZ-b2) | dissociation rate compared with the original (ARVCF) peptide (ePDZ-b2) | Kd (ARVCF peptide) [µM] | decrease in binding (ΔΔG) on alanine substitution [1] | discrimination between ARVCF peptide and δ-catenin peptide (δ-catenin peptide) | Kd (δ-catenin peptide; SPR, 25° C.) [µM] | Specificity Index (δ-catenin peptide; ratio of the Kd for δ-catenin to the Kd for ARVCF)
1 | RGSIDTWV-COOH (RGSIDTWV-OH) [used in SPR as yeast SUMO fusion] | higher affinity | much slower | – | – | – | – | –
2 | B1 | – | – | 2.2 | only small effects | almost equally | 6.3 | 3
